Experimental data reported in patent US20230242658A1 (published 2023).
Values belong to the binder of their own block, whether it stands above or below them.

Legend:
[1] = biological target: T1, human 4-1BB on CHO-K1 cells (human, UniProt Q07011 24-255); experiment: FACS
Target sequence in this assay (Q07011 24-255): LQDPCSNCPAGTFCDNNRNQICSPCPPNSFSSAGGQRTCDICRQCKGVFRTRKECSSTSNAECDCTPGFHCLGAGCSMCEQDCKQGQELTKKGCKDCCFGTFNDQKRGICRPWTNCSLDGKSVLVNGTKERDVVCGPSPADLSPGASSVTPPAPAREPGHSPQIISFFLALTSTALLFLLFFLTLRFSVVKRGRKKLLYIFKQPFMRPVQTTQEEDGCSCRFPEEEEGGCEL

[2] = biological target: T2, cynomolgus monkey 4-1BB on CHO-K1 cells (cynomolgus monkey); experiment: FACS; FIG. 12F
T2 chain: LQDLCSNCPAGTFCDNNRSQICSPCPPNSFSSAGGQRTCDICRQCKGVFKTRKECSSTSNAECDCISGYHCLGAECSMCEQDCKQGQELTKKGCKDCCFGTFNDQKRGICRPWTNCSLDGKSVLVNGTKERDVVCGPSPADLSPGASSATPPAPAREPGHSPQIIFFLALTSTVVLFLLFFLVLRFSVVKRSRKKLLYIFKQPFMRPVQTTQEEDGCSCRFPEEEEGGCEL

[3] = biological target: T1, human 4-1BB on CHO-K1 cells; experiment: FACS blocking of 4-1BBL; FIG. 14F
[4] = biological target: T2, cynomolgus monkey 4-1BB on CHO-K1 cells; experiment: FACS; FIG. 12L
[5] = biological target: T1, human 4-1BB on CHO-K1 cells; experiment: FACS; FIG. 11M
Target sequence in this assay (Q07011 24-255): as the sequence (Q07011 24-255) above

[6] = biological target: T1, human 4-1BB on CHO-K1 cells; experiment: FACS blocking of 4-1BBL
Target sequence in this assay (Q07011 24-255): as the sequence (Q07011 24-255) above

[7] = biological target: T2, cynomolgus monkey 4-1BB on CHO-K1 cells; experiment: FACS
[8] = biological target: T1, human 4-1BB on CHO-K1 cells; experiment: FACS; remark: listed apart in the source
[9] = biological target: human PD-L1 on CHO-K1 cells (human, UniProt Q9NZQ7 19-290); experiment: FACS
[10] = biological target: T2, cynomolgus monkey 4-1BB on CHO-K1 cells; experiment: FACS
[11] = biological target: T2, cynomolgus monkey 4-1BB on CHO-K1 cells; experiment: FACS; FIG. 12K
[12] = biological target: T1, human 4-1BB on CHO-K1 cells; experiment: FACS; FIG. 11L
Target sequence in this assay (Q07011 24-255): as the sequence (Q07011 24-255) above

[13] = biological target: T1, human 4-1BB on CHO-K1 cells; experiment: FACS; remark: listed apart in the source
[14] = biological target: T2, cynomolgus monkey 4-1BB on CHO-K1 cells; experiment: FACS; FIG. 12C
[15] = biological target: T1, human 4-1BB on CHO-K1 cells; experiment: FACS blocking of 4-1BBL; remark: listed apart in the source

human PD-L1 on CHO-K1 cells, sequence (Q9NZQ7 19-290): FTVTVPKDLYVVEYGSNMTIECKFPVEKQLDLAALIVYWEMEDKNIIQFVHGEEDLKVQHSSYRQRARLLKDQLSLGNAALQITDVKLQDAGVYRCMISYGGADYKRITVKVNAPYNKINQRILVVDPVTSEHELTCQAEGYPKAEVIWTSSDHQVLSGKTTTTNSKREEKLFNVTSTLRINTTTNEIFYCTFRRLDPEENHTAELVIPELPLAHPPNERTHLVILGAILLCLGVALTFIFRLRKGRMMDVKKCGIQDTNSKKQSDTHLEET

EC50 [1]: 0.386 nM
EC50 [2]: 1.63 nM
IC50 [3]: 1.96 nM
B1: PR001837 (antibody, V domains shown)
VH: EVQLLESGGGLVQPGGSLRLSCEASGFTFSSYAMSWVRQAPEKGLEWVSSISGSGGSTFYADSVKGRFTISRDNSKNTLYLQMNSLRAEDTAVYYCAKEGTTETDDYHYNMDVWGQGTTVTVSS

EC50 [4]: 118 nM
EC50 [5]: 17 nM
IC50 [6]: 23.1 nM
B2: PR007299 (antibody, V domains shown)
VH: EVQLVESGGGLVKPGGSLRLSCAASGFTFSDYQMSWLRQAPGKGLEWVSYISSSGRTIYYADSVKGRFTISRDNAKNSVSLQMNSLRAEDTAVYYCAREGRFFPGQGTPVTVSS

EC50 [1]: 0.37 nM
EC50 [2]: 1.25 nM
IC50 [3]: 2.58 nM
B3: PR001840 (antibody, V domains shown)
VH: EVQLVESGGGLVQPGGSLRLSCAASGFTFSSYWMHWVRQAPGKGLVWVSRINSDGSSTSYADSVQGRFTISRDNAKNTLYLQMNSLRAEDTAVYYCVRKGSSSYYHYSIEDDWGQGTLVTVSS

EC50 [7]: 1.86 nM
EC50 [8]: 1.9 nM
EC50 [9]: 1.56 nM
B4: PR003549 (bispecific antibody)
light: DIQMTQSPSTLSASVGDRVTVTCRASQSIYIWLAWYQQKPGKAPNLLIYKASSLETGVPSRFSGSGSGTEFTLTISSLQPDDFATYYCQQYYGSSRTFGQGTKVEIKRTVAAPSVFIFPPSDEQLKSGTASVVCLLNNFYPREAKVQWKVDNALQSGNSQESVTEQDSKDSTYSLSSTLTLSKADYEKHKVYACEVTHQGLSSPVTKSFNRGEC
heavy: EVQLVESGGGLVQPGGSLRLSCAASGFTFSSYWMSWVRQAPGKGLEWVANIKQEGSEKYYVDSVKGRFTISRDNAKNSLYLQMNSLRAEDTAVYYCARDRAVAGAFDIWGQGTMVTVSSASTKGPSVFPLAPSSKSTSGGTAALGCLVKDYFPEPVTVSWNSGALTSGVHTFPAVLQSSGLYSLSSVVTVPSSSLGTQTYICNVNHKPSNTKVDKKVEPKSCDKTHTCPPCPAPEAAGGPSVFLFPPKPKDTLMISRTPEVTCVVVDVSHEDPEVKFNWYVDGVEVHNAKTKPREEQYNSTYRVVSVLTVLHQDWLNGKEYKCKVSNKALGAPIEKTISKAKGQPREPQVYTLPPSREEMTKNQVSLTCLVKGFYPSDIAVEWESNGQPENNYKTTPPVLDSDGSFFLYSKLTVDKSRWQQGNVFSCSVMHEALHNHYTQKSLSLSPGEPKSSDKTHTPPPPPRTEVQLLESGGGLVQLGGSLRLSCAASGFTFSRYAMTWVRQAPEKGLEWVSSISGSGDDTYYGDSVKGRFTISRDNSQNTVYLQMNSLRAEDTAVYFCAKEKAGTTGDYYYNVDVWGQGTTVTVSS

EC50 [7]: 1.32 nM
EC50 [9]: 1.11 nM
B5: PR003550 (bispecific antibody)
light: DIQMTQSPSTLSASVGDRVTVTCRASQSIYIWLAWYQQKPGKAPNLLIYKASSLETGVPSRFSGSGSGTEFTLTISSLQPDDFATYYCQQYYGSSRTFGQGTKVEIKRTVAAPSVFIFPPSDEQLKSGTASVVCLLNNFYPREAKVQWKVDNALQSGNSQESVTEQDSKDSTYSLSSTLTLSKADYEKHKVYACEVTHQGLSSPVTKSFNRGEC
heavy: EVQLVESGGGLVQPGGSLRLSCAASGFTFSSYWMSWVRQAPGKGLEWVANIKQEGSEKYYVDSVKGRFTISRDNAKNSLYLQMNSLRAEDTAVYYCARDRAVAGAFDIWGQGTMVTVSSASTKGPSVFPLAPSSKSTSGGTAALGCLVKDYFPEPVTVSWNSGALTSGVHTFPAVLQSSGLYSLSSVVTVPSSSLGTQTYICNVNHKPSNTKVDKKVEPKSCDKTHTCPPCPAPEAAGGPSVFLFPPKPKDTLMISRTPEVTCVVVDVSHEDPEVKFNWYVDGVEVHNAKTKPREEQYNSTYRVVSVLTVLHQDWLNGKEYKCKVSNKALGAPIEKTISKAKGQPREPQVYTLPPSREEMTKNQVSLTCLVKGFYPSDIAVEWESNGQPENNYKTTPPVLDSDGSFFLYSKLTVDKSRWQQGNVFSCSVMHEALHNHYTQKSLSLSPGEPKSSDKTHTPPPPPRTEVQLVESGGGVVQPGGSLRLSCAASGFTFSNYAMTWVRQAPEKGLEWVSSISGSGVSTYYADSVKGRFTISRDNSKNTLYLQMTRLTAEDTAVYFCAKEGSSETDDHYYNVDVWGQGTTVTVSS

EC50 [10]: 0.621 nM
EC50 [9]: 1.2 nM
B6: PR004268 (bispecific antibody)
light: DIQMTQSPSTLSASVGDRVTVTCRASQSIYIWLAWYQQKPGKAPNLLIYKASSLETGVPSRFSGSGSGTEFTLTISSLQPDDFATYYCQQYYGSSRTFGQGTKVEIKRTVAAPSVFIFPPSDEQLKSGTASVVCLLNNFYPREAKVQWKVDNALQSGNSQESVTEQDSKDSTYSLSSTLTLSKADYEKHKVYACEVTHQGLSSPVTKSFNRGEC
heavy: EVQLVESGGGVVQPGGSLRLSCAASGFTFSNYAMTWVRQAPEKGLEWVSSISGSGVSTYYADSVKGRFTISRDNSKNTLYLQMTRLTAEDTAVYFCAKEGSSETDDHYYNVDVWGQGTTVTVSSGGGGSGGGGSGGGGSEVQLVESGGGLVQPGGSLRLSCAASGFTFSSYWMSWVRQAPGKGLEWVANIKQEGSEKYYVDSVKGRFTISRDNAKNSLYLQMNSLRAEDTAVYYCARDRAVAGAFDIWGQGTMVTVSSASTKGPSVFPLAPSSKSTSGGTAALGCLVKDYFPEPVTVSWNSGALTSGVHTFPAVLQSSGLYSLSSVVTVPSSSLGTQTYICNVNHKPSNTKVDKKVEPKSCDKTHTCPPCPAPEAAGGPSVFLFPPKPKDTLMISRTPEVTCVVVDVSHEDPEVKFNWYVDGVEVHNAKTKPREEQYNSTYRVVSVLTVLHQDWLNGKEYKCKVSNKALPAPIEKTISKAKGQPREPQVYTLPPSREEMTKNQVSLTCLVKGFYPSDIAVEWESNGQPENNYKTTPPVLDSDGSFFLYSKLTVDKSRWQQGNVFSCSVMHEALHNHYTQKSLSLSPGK

EC50 [11]: 11.1 nM
EC50 [12]: 18.9 nM
IC50 [6]: 16.1 nM
B7: PR007295 (antibody, V domains shown)
VH: EVQLVESGGGLVKPGGSLRLSCAASGFTFSDYYMSWIRQAPGKGLEWVSYISNNGSTIYYADSVKGRFTISRDNAKNSLYLQMNSLRAEDTAVYYCARVRPGGSGNYWDWFDPWGQGTMVTVSS

EC50 [4]: 1.94 nM
EC50 [5]: 2.77 nM
IC50 [6]: 2.87 nM
B8: PR007300 (antibody, V domains shown)
VH: EVQLVESGGGLVKPGGSLRLSCTTSGFTFSDYYMNWVRQAPGKGLEWVSYISNNGSTIYYADSVKGRFTISRDNAKNSLYLQMNSLRAEDTAVYYCARVRPGGSGNYWDWFDPWGQGTPVTVSS

EC50 [11]: 8.84 nM
EC50 [12]: 11.7 nM
IC50 [6]: 11.3 nM
B9: PR007297 (antibody, V domains shown)
VH: EVQLVESGGGLVKPGGSLRLSCAASGFTFSDYYMSWIRQAPGKGLEWVSYISRSGSTIYYADSVKGRFTISRDNAKNSLYLQMNSLRAEDTAVYYCARVRPGGSGNYWDWFDPWGQGTLVTVSS

EC50 [4]: 2.33 nM
EC50 [5]: 3.71 nM
IC50 [6]: 6.7 nM
B10: PR007298 (antibody, V domains shown)
VH: EVQLVESGGGLVKPGGSLRLSCAASGFTFSDYYMSWVRQAPGKGLEWVSYISSSGSTIDYADSVKGRFTISRDNAKNSLFLEMNSLRAEDTAVYYCAREREEVAGTLDFDNWGQGTLVTVSS

EC50 [11]: 3.28 nM
EC50 [12]: 3.81 nM
IC50 [6]: 4.19 nM
B11: PR007296 (antibody, V domains shown)
VH: EVQLVESGGGLVKPGGSLRLSCVASGFTFSDYYMSWFRQAPGKGLEWVSYISGSGTTIDYADSVKGRFTISRDNAKNSLYLQMNSLRAEDTAVYYCAREREAVAGTLDFDNWGQGTPVTVSS

EC50 [13]: 0.846 nM
EC50 [14]: 6.97 nM
B12: PR001768 (antibody, V domains shown)
VH: EVQLLESGGGLVQPGGSLRLSCAASGFTFSNYAMTWVRQAPGKGLEWVSSISGSGDSTYYADSVKGRFTISRDNSKNTLYLQMNSLRAEDTAVYYCAKEGTGTTSDYYYNVDVWGQGTTVTVSS

EC50 [13]: 0.532 nM
EC50 [14]: 3.77 nM
IC50 [15]: 21.6 nM
B13: PR001771 (antibody, V domains shown)
VH: EVQLLESGGGLVQPGGSLRLSCAASGFTFSNYAMTWVRQPPGKGLEWVSSISGSGGSTYYADSVKGRFTISRDNSKNTLYLQMNSLRAEDTAVYYCAKEGTGTTSDYYYNVDVWGQGTTVTVSS

EC50 [10]: 1.55 nM
EC50 [9]: 0.963 nM
B14: PR004270 (bispecific antibody)
chain 1: EVQLVESGGGLVQPGGSLRLSCAASGFTFSSYWMSWVRQAPGKGLEWVANIKQEGSEKYYVDSVKGRFTISRDNAKNSLYLQMNSLRAEDTAVYYCARDRAVAGAFDIWGQGTMVTVSSASTKGPSVFPLAPSSKSTSGGTAALGCLVKDYFPEPVTVSWNSGALTSGVHTFPAVLQSSGLYSLSSVVTVPSSSLGTQTYICNVNHKPSNTKVDKKVEPKSC
chain 2: not shown

EC50 [13]: 1.27 nM
EC50 [14]: 6.73 nM
IC50 [15]: ~2.12 nM
B15: PR001774 (antibody, V domains shown)
VH: EVQLVESGGGLVQPGGSLRLSCAASGFTFSSFAMTWVRQAPEKGLEWVSTISGSGDTTYYADSVKGRFTISRDSSKNTLYLQMNSLRAEDSAVYFCAKEATAMASDYYYGVDVWGQGTTVTVSS
